Measurements published in the nanobody polyreactivity screen of Harvey et al. (2022).

Assay: yeast display, Sf9 membrane polyspecificity reagent, FACS + sequencing; frameworks hold sequencing errors
How it was run: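 Genes from sorted yeast were amplified by colony PCR, read by MiSeq 2 × 250 sequencing and filtered on CDR length. These cells carried a synthetic nanobody library in Saccharomyces cerevisiae BJ5465 and were sorted by FACS into low and high (top ~1%) gates on anti-HA and streptavidin fluorescence. Polyreactivity is labelled according to the gate of origin.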

For “QVQLVETGGGLVQAGGSLRLSCAPSGRTLTYYAMGWYRQAPGKERELVAAIRHSAGSTYYADSVKVRFTISRDNAKNSVYLLMNSLKPEVTAVYYCAKKYYGHRYPSIYDYWGQGTQVTVSS”, which “polyreactivity (PSR sort gate)” value is on record?
The value was “high polyreactivity”.

With “QVQLVETGGGLVQAGGSLRLSCAPSGSIFRYNAMGWYRQAPGKEREFVAAISQSGSRTYYADSVKGRFTISRDNAKNTVYLQMNSLKPEDTAVYYCAKKYYGVKFYWGQGTQVTVSS” as the sequence, how does the “polyreactivity (PSR sort gate)” value read?
The value was “low polyreactivity”.

With “QVQLVETGGGLVQAGGSLRLSCDASGSTFVRYVMGWYRQAPGKERELVAAISRRGGSTYYADSVKGRFTISRANAKNTVYLQMNSLKPEDNAVYYCAGRGGRYFPYHGTIRYDYWGQCTQVTVSS” as the sequence, how does the “polyreactivity (PSR sort gate)” value read?
Its value is “high polyreactivity”.

Which “polyreactivity (PSR sort gate)” value does the source give for “QVQLVETGGGLVQAGGSLRLSSAASGRTFAYYAMGWYRQAPGKERELVAAISSGGGSTYYADSVKGRFTISRDNAKNTVYLQMNSVKPEDTAVYYCNKGFNYCGWFKKYGYWGQGTQVTVSS” here?
The value was “high polyreactivity”.

Which “polyreactivity (PSR sort gate)” value does the source give for “QVQLVETGGGLVQEGGSLRISCAASGSLFDVYAMGWYRQAPGKERELVAAISSSGSTYYADSVKGRFTISRDNAKNTVYLQMNSLKTEDTAVYYCAADQADDDDYYYWGQGTQVTVSS” here?
The value was “low polyreactivity”.

Which “polyreactivity (PSR sort gate)” value does the source give for “QVQLVETGGRLVQAGGSLRLSCAASGITLPKYAMGWYRPAPGKERELVAAISRSSGRTYYADSVKGRFTISRDNAKNTVYLQMNSLKPEDTAVYYCAASHGGYITRYNYWGQGTQVTVSS” here?
Its value is “high polyreactivity”.

For “QVQLVETGRGLVQAGGSLRLSCAASGGTFVVYSMGWYRQAPGTERELVAAITWIGDSTYYADSVKRRFTISRDNAKNTVYVQMNSLNPEDTAVYYCNKAKLYLVGRARFQTNYGLYDFWGQVTQVTVSS”, which “polyreactivity (PSR sort gate)” value is on record?
Its value is “low polyreactivity”.

Which “polyreactivity (PSR sort gate)” value does the source give for “QVQLVETRGGLVQAGGSLRFSCAPSGRISLIYDMGWYRQAPAKERELVASITWSGDSTYYADSVKGRFTNSRDNAKNTVYLQMNSLKPVDTAVYYCAAVCWTYEYWEWYDYWGQVTQVTVSS” here?
The value was “high polyreactivity”.

Which “polyreactivity (PSR sort gate)” value does the source give for “QVQLVETVGGLVQAGGSLRLTCAASGFTIYYNAMGWYRQAPGKERELVASISSNGTSTYYADSVKGRFTISRDNAKNTVYLQMNSLKPEDTAVYYCNVDIFDPRTYDYWGQGTQVTVSS” here?
The value was “low polyreactivity”.

For “QVQLVETVVGLVQAGGSLRLSCAASGSIFGFYDMGWYRQAPGKERELVAVISVSDGSTYYADSVKGRFTISRDNAKNTVYLQMNSLKAEDTAVYYCAATPRGSYGYYYWGQGTQVTVSS”, which “polyreactivity (PSR sort gate)” value is on record?
Its value is “low polyreactivity”.

For “QVQLVGSGGGLVQAGGSLRLSCAASGIIFQLYAMGWYRQAPGKERELVAAITSTGTTNYADSVKGRFTISRDNAKNTVYLQMNCLKPEDTAVYYCNADVGYWWGYYGYDYWGQGTQVTVSS”, which “polyreactivity (PSR sort gate)” value is on record?
Its value is “high polyreactivity”.

For “QVQLVGVRGRLVQAGGSLRLSCAASGRTIYAYAMGWNRQAPRKERELVATITSGGSTNYADSVKGRFTISRDNAMNTFYLLMNSLKPEDTAVYYCGAGPRGYKKYDYWGHGTQVTVSS”, which “polyreactivity (PSR sort gate)” value is on record?
The value was “low polyreactivity”.

Which “polyreactivity (PSR sort gate)” value does the source give for “QVQLVHSGGGLVQAGGSLRLSCAASGITIWYYAMGWYRQAPGKERELVAAISWRGGSTYYADSVKGRFTISRDYAKNTVNLQMNSLKPEATAVYYCAAGYSLLYTYEYWGQGTQVTVSS” here?
Its value is “high polyreactivity”.

Which “polyreactivity (PSR sort gate)” value does the source give for “QVQLVKSGGGLVQAGGSLRLSCAASGFIIPEYTMGWYRQAPGKERELVAAISGSGGSTYYADSVKGRFTISRDNAKNTVYLQMNSLKPEDTAVYYCAASYAVSRYLQTYAHAHGYWGQGTQVTVSS” here?
Its value is “low polyreactivity”.

With “QVQLVKSGGGLVQAGGSLRVSCAATGRIYTDNAMGWYRQATGKERELVAGMSSSGGRTYYADSVKGRFTISRDNAKNSVFFQMNSLLTEATAVYYCAAANSRRDGRYYWGQGTQVSVSS” as the sequence, how does the “polyreactivity (PSR sort gate)” value read?
Its value is “high polyreactivity”.

With “QVQLVQSAAGLVHAGGSLRLSCAASGIIFYGYAMVSYRQAPGKERELVAAITSYDGSTYYADSVKGRFTISRDNAKNTVYLQMNSLKPEDTAEYYCAADYSTYEGWYWFDYWGQGSQVTVSS” as the sequence, how does the “polyreactivity (PSR sort gate)” value read?
The value was “high polyreactivity”.
